Experimental findings from US20220251202A1 (ASHER BIOTHERAPEUTICS, published 2022) are described below.

This test deals with T1, mouse CD8 (on mouse CD8+ T cells) (mouse, UniProt P01731 28-247; P10300 22-213).
T1 construct: whole, on cells
Nature of the test: flow cytometry on mouse splenocytes, anti-hFc MFI. As to the method:
Fresh splenocytes were incubated with the indicated antibodies for 2 hours at 4° C. The cells were then stained with antibodies against CD3, CD4, CD8 and anti-hFc. anti-hFc was used to measure the binding of CD8-IL2 fusion containing hFc. Cells were washed and analyzed by flow cytometry.
The binding affinity of anti-mouse CD8 antibodies was determined through flow cytometry analysis. […] The xCD8ab2.1 clone is derived from xCD8ab2 by introduction of mutations N95A (VH) and D92A (VK). After incubation with the anti-mouse CD8 antibody, the cells were then stained with antibodies against CD3, CD4, CD8 and anti-hFc (HP6017, Biolegend), the latter of which was used to measure the binding of CD8-IL2 fusion containing hFc. Stained cells were washed and analyzed by flow cytometry and mean fluorescence intensity (MFI) of staining with anti-hFc was used to denote binding.
(In general: Flow cytometry measures light scatter and fluorescence of single cells or particles in a stream.)

B1: xmCD8ab2 (published clone YTS156.7.7) (antibody, V domains shown)
VH: EVKLQESGPSLVQPSQTLSLTCSVSGFSLISDSVHWVRQPPGKGLEWMGGIWADGSTDYNSALKSRLSISRDTSKSQGFLKMNSLQTDDTAIYFCTSNRESYYFDYWGQGTMVTVSS
VL: DIQMTQSPASLSASLGDKVTITCQASQNIDKYIAWYQQKPGKAPRQLIHYTSTLVSGTPSRFSGSGSGRDYSFSISSVESEDIASYYCLQYDTLYTFGAGTKLELK
notes: Carries a human Fc; also called xCD8ab2
As for B1, the binding result is on record as “binds”.

B2: xmCD8ab2.1 (antibody, V domains shown)
VH: EVKLQESGPSLVQPSQTLSLTCSVSGFSLISDSVHWVRQPPGKGLEWMGGIWADGSTDYNSALKSRLSISRDTSKSQGFLKMNSLQTDDTAIYFCTSARESYYFDYWGQGTMVTVSS
VL: DIQMTQSPASLSASLGDKVTITCQASQNIDKYIAWYQQKPGKAPRQLIHYTSTLVSGTPSRFSGSGSGRDYSFSISSVESEDIASYYCLQYATLYTFGAGTKLELK
notes: Carries a human Fc; also called xCD8ab2.1
In the case of B2, the binding result is listed as “binds”.
